Two molecules from patent US20220056101A1 (published 2022) can be followed below.

In assay [1] the target is T1, Epstein-Barr virus latent membrane protein 2 (LMP2) peptide on HLA-A24 (human).
T1 peptide: SSCSSCPLSK
As to the kind of experiment: killing.

The target in assay [2] is T2, Epstein-Barr virus latent membrane protein 2 (LMP2) peptide on HLA-A11 (human).
T2 peptide: SSCSSCPLSK
In words: killing.

Positions count from the first letter of the chain named.

B1: TCR-NPC-A11-003 (TCR, V domains shown)
Valpha: GIQVEQSPPDLILQEGANSTLRCNFSDSVNNLQWFHQNPWGQLINLFYIPSGTKQNGRLSATTVATERYSLLYISSSQTTDSGVYFCAVVNNNDMRFGAGTRLTVKP
Vbeta: DTEVTQTPKHLVMGMTNKKSLKCEQHMGHRAMYWYKQKAKKPPELMFVYSYEKLSINESVPSRFSPECPNSSLLNLHLHALQPEDSALYLCASSPGRWYEQFFGPGTRLTVL
Regarding B1, the binding result in assay [1] is given as “no recognition”; in assay [2], “recognises”.

B2: TCR-NPC-A11-125 (TCR, V domains shown)
Valpha: B1 Valpha with V90L
Vbeta: B1 Vbeta with P95Q, Q101A, P105Q, L112V
Consider B2, for which the results for the binding result in assay [1] and in assay [2] were “no recognition” and “recognises”, respectively.
